In patent US20050079543A1:

Legend:
[1] = molecular target: tyrosine phosphorylated Stat91 (human) (UniProt P42224); assay: native gel electrophoresis, Ferguson plots
[2] = molecular target: tyrosine phosphorylated Stat91 (human) (UniProt P42224); assay: glycerol gradient sedimentation
[3] = molecular target: Stat84, activated (from IFN-γ-treated C84 or Cmx cells) (human) (UniProt P42224); assay: cell-based or functional assay
[4] = molecular target: Stat91L, activated (from IFN-γ-treated C91L or Cmx cells) (human) (UniProt P42224); assay: cell-based or functional assay
Stat91L, activated (from IFN-γ-treated C91L or Cmx cells) (human), sequence (P42224 2-750, stated change not applied): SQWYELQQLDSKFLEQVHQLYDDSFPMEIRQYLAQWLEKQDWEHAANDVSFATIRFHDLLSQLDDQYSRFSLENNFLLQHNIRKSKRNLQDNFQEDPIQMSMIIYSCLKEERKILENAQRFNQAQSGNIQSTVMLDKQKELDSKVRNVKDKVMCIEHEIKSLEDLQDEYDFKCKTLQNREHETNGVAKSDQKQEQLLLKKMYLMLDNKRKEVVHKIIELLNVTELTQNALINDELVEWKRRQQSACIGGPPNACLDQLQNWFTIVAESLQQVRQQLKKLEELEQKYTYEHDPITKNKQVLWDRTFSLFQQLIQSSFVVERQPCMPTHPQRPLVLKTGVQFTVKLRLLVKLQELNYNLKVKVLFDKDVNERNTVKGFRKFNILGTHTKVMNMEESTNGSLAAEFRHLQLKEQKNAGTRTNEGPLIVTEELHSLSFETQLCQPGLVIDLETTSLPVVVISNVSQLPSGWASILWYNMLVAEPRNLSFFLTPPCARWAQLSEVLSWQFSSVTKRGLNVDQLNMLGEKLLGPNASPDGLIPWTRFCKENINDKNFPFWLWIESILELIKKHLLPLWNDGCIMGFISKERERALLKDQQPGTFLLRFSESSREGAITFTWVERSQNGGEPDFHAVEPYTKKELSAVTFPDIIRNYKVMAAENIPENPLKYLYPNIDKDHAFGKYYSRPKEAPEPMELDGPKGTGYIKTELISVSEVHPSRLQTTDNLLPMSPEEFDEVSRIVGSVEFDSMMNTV

Stat84, activated (from IFN-γ-treated C84 or Cmx cells) (human), sequence (P42224 2-712 limits assumed): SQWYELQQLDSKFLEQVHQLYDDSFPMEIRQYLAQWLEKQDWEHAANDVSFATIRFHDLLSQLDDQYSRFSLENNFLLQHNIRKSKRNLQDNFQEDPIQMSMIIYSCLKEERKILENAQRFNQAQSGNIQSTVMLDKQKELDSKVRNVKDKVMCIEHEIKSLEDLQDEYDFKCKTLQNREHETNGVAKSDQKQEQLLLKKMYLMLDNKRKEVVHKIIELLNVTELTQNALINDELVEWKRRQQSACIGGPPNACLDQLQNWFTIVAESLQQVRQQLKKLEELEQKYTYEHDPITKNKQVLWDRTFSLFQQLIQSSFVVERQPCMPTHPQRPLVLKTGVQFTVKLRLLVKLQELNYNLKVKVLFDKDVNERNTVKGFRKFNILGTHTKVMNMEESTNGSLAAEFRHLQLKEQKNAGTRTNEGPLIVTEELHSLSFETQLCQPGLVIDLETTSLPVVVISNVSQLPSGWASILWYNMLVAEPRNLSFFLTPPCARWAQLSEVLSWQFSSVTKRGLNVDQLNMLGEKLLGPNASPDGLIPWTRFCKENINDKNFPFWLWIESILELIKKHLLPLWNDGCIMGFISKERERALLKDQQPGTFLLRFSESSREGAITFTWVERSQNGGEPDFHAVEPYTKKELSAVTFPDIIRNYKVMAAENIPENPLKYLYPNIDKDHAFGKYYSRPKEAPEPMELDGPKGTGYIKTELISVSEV

native molecular weight [1] [kD]	native molecular weight [2] [kD]	fusion protein concentration that promoted heterodimer formation (gel mobility shift) [3] [µM]	fusion protein concentration that promoted heterodimer formation (gel mobility shift) [4] [µM]	Substance
180	180	–	–	tyrosine phosphorylated Stat91 (from UniProt P42224 2-750)
–	–	0.5 to 5	0.5 to 5	GST-91SH2 (glutathione-S-transferase fused to the Stat91 SH2 domain, amino acids 573 to 672) (from UniProt P42224 573-672)
